Data on one molecule can be found in paper PMC5382683, “Identified of a novel cis-element regulating the alternative splicing of LcDREB2”.

The data set concerns the target T1, RSZp21b (Oryza sativa, UniProt Q6K4N0 1-185).
T1 sequence: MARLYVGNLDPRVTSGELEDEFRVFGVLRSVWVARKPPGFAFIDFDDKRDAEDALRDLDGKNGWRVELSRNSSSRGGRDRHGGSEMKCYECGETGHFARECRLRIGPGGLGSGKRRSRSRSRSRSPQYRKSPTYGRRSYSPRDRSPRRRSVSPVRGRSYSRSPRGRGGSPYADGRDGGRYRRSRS
In words: EMSA; LightShift Chemiluminescent EMSA Kit (Pierce 20158) per manufacturer; 100-fold unlabeled probe as competitor; buffer, salt, pH, temperature not stated. The note with it: protein: recombinant; tags: His (pET30a, Ni column). (Mobility shift assays separate free from complexed probe on a gel.)

B1: E3-2 (ssRNA)
RNA: ACUCUUGGCGCAGCAAAAGGGAGAUGCGC
Take B1: the binding result is listed as “binds”.
